Assay: label from the status in PepcDB records

In the case of “MNSENHPATTFKSRIKSSLPYTLAVAIIGFVSLWVRMRPYDHVFLSNGFVKFTSNDPWYHIRTLNVLLENYPQRMFFNPMTNYPYGSYIHFGPLYDQMMAITSLILGLGSPSQDLINTVGAYFPAVLGALTVIPVYYIGKYLGGRKTGILAAVFIAFAPGQFLSRSLIGFTDHHVAESLFSTFFMMFFMLAIITAKKKNLRFEDLFNKNFIVVKEPLIYSIIAGVMYSAYQLSWPGASLFLFIALVYAVVQYILDNFNGESSDYLGFTGIITFLVSAILILPFIHPELGFSMYYYTWFHVATAIGTMAGFAALSLIQREFKNRNLKAYYYPLAIFLLGFLGLLAIRFASPSVYSLIISAPNTVFGVLTGGAATIGEVSSMFYYGGTFTLSRAFGNFTVSGFFASIIGLIILLVSVIRKAKPEEVLVLVWSILMLFAIYGQNRFAYYYSINVSILSAYIGGLLLEKVKWNELDEKFKSSVKSPADIPGFLKSFRAKQVLAVLAIAVFLIYPVYGAAMVQSTGSNDPDWAWIEACLWLKSSTPDPGMDYNAIYEAPEDGKLFDYPESAYGVMSWWDYGHYIETLGHRMPNANPFQAGIGGRRGSINETNVPGAAPFLTAQSEEEATEVLESIHPDPEKSGARYIMSDERMAVDIFMAMPEWTLDTEGYMQPYWTGDGYQYLPSKRYFDSMESRLHFLDGNGLKQYRLVYETWAYQTQEAGYKQVYNFLYGSSIPEVDSGYVKIFEYVKGAKITGTVSPNETVNINTTILTGQGRTFEYSQSTSSDSEGRYEFIVPYSTEGPIPGETQFDTAPTGAYVVSYGDTTTEVRVSEEAVLNGEEIKV”, the protein production is reported as “failed”.
In the case of “MRFGPVALSAAKGALLAHSRKAPGWTLAKGTRLGDEDLALLAGLGVAEVVVARLDPGDVHEDEAAARVAAVLLGPGLTLGDAFTGRANLFAGGDGLLRLDAARFDRLNALCEGLTVATLPPFAKVAPRQMVATVKIIPFALPETVIAQAEALLAGAPALEVALFRPMRLALIQTHLPETAGKMLDKTASVTAGRMAALGGGLTVDRRCPHDTRALAACLSAVSAEKDVDLIAVAGASAIVDRGDVIPAAITRAGGRVDHLGMPVDPGNLILLGELAGRVVLGLPGCARSPAINGFDWVLDRLCAGLAVGGADLMAMGVGGLLKDTTARTQPRMAAVTHPSPAAPPRLGALVLAAGLSRRMGGVNKLLLDWRGKPLVAHAVDTVLAAGPAAVAVVIGHQGKAVRAALEGRAIALVENPDPGRGLGSSLKRGLAALPADLDGVIVCLGDMPGLTPRLLSRLIAAFAPLEGRAICLPTFGGRRGNPVLFAARFLPEMMEITGDIGARPVIAAHPDQTCEVAMDALAEGASVLMDVDTPEAAKALLSAGGLEHHHHHH”, the protein production is reported as “failed”.
With “MGAQKKPAAAKVREDSEDLSRQRLQAILLADSFTTQFRSITLERPKVLLPIVNIPMIDYTLAWLESAGIEEVFVFCCAHSSQIIDYLKKSEWYTRPNPNLLVRTIVSHNSTSVGDALRYIYEQQTETSQIQGDFVLVSGDTVSNMPLADLIQQHRDRKKKDEKAIMTMVFKKQSRLGIGSDQLFVAVDPLTKQLLHYEECNSRGGDFCLDKSLLDSTVLCSDMQDCYIDICSPEVLSLFEDNFDYQHMRRHFVNGLLVDDIMGYKIFTHEIQSSCYAARIDNLRSYDTVSKDIIQRWTYPYVPNIDFSGNRPVKLGRRGIYRASDAVQSHTADVGASTVIGYGTKIGNGGKIYNSVIGNGCCIGSNVVIQGSYIWNNVTIEDGCEIRNAIVCDGVKVRAGAVLQPGVVLSFSVVVGRDFVVPAYSKVSLLQQPTTEDSDEELEYADSSSGTADHSSGLNNLQIESKASELGPDGAGYIWEICDSAHDEEWKHSVVPIPMDKLADITGAMDDDDIEDDIVVPPSGELKSDTDIINTDANDSYGDFEREVEEEFLSAVEKDNKADIVIPLINSHRLAYNMDSADCAGAVFYSMMRLAVKSPHNSATELYRNAMGVITKWKGVLGFYLKQTDAQIEVIMKFEEMCQESEELSPLFAKLLPFLYDKDVVQEDAILRWGEEKAGADDCDKVYLNKCESFIKWLKEASEEEEEDS” the protein production was “failed”.
For “MAKKRSKLEIIQAILEACKSGSPKTRIMYGANLSYALTGRYIKMLMDLEIIRQEGKQYMLTKKGEELLEDIRKFNEMRKNMDQLKEKINSVLSIRQ”, the protein production was “not failed”.
With “MAVVGFDAAKISILDENEKVTDTFTIDRSSGGTIEANISGLAPNMNVVYASNVPFYVSAKGTSEVKCELTVADLDDLGTEAVNKILGREQDSTTKITKVGVNTTPPYCVLELISKDKQGKGLFLGLLKGKFTFDGEDMKTSDNNGSQLSEDKVTMQCISRKDGYIYAKAKEADGTTQADFEKFIMPAATAPAAG” the protein production was “failed”.
For “MKERRAPQPVVARCKLVLVGDVQCGKTAMLQVLAKDCYPETYVPTVFENYTACLETEEQRVELSLWDTSGSPYYDNVRPLCYSDSDAVLLCFDISRPETVDSALKKWRTEILDYCPSTRVLLIGCKTDLRTDLSTLMELSHQKQAPISYEQGCAIAKQLGAEIYLEGSAFTSEKSIHSIFRTASMLCLNKPSPLPQKSPVRSLSKRLLHLPSRSELISSTFKKEKAKSCSIM”, the protein production was “failed”.
For “MVSFVFNGGALWSVLLLALRKRRFNVDPAMMAMTIAIYAYCAANLVASIVNSAIARDALHLIPLVTFLFFPISYSTWSITQKTTLVRIIVLSSMAACFVALLLAVFQQHWLGMRAEGGAGNAIVFAEVLCLAVLVCVAGALSDIERHRIALLCAALGGTIAIIYSGTRIVWLALLIAGIAVLLINQHRLKGRNAIRLLVLLLAAGAVIAAVGFQTISGRVDFLRSDLDALAVNGDHTTAIGLRLAVWDIGLKAFREMPLFGHGVGATQALIKQGFHDQFGMDAGFNHFHNGFLTALVQAGLLGAVTLAAMFVVAARNAAVVLRNSTDPIERFGATMIVIMVITYLTSGMTGILIGHDILDSVLMVFLVSGTYLASGRQAPLPQDQALPPETEERAPAPVAEDALLPGMENRALRLTQ”, the protein production was “failed”.
For “MACFMALVLARFGFGFCMLLAALVLLAAATLLATRLVGWAVRAFALERSQALASGVAIFILVALALWGCHAVGEVLYGAIGATALVGGAPHWLAGNSHVSAAALMGATTAAAMLAGGPAFWRWLRARRAAAAEQPAPRKAAPPKGAKPAARAAKAAAKTQIAPRGQRIPWLGWTAFFLLFIGAAVLAFAYIVAPIEAGASGLRLEHATRARPVYLAGLTLLGGGAFFLLAWLSRRRLPGD”, the protein production was “failed”.
With “MKFAVAVSGDRVNGPGESEEVQIYETDGGNVRLIEKYSNPALNATAARGVFMLKSALDHGANALVLSEIGSPGFNFIKNKMDVYIVPEMPVADALKLILEGKVSPATAPTHDHGHHH” the protein production was “not failed”.
With “MASLQLCDGYLLFKPSVSPRFLSQRISHRLIPKASSSPPPSPSPSSSSSSLSFSRRELLYQSAAVSLSLSSIVGPARADEQLSEWERVFLPIDPGVVLLDIAFVPDEPSRGFLLGTRQTLLETKDGGSTWNPRSIPSAEEEDFNYRFNSISFKGKEGWIIGKPAILLYTADAGENWDRIPLSSQLPGDMVFIKATEDKSAEMVTDEGAIYVTSNRGYNWKAAIQETVSATLNRTVSSGISGASYYTGTFSAVNRSPDGRYVAVSSRGNFFLTWEPGQPYWQPHNRAVARRIQNMGWRADGGLWLLVRGGGLYLSKGTGITEEFEEVPVQSRGFGILDVGYRSEEEAWAAGGSGILLRTRNGGKSWNRDKAADNIAANLYAVKFVDDKKGFVLGNDGVLLRYVG” the protein production was “failed”.
For “MYVFFSKDYLSKQEQSIWEQSFLRGNLMKAVVIGAGEVGYHIAKFLSLTHDVIVIENDEDALRRADELDVQVVEGNGANADILASVLPDVDILVAVTGVDEVNIVACMTAKLILRAHPGWKETKTIARVSNPDYIDVPVTSRAQVGVDIMICPELALASEVAEVLSNPSAIDAEMFAGGKVQMMEFAIRPDNRLVGKRMQDIELEDCCIVSAIFRNNDIIIPHGDDFIKANDHMVVVGKPRAMADLENVFGNEGPHRNRILLIGCGIVGFYLAKIIDKDENADLKVIEYRKSRCIEVAEMLENALILNGDGTDVNLLREENIEDMDVVIAVTDNDEKNLLCSLLAKQMGAKKVIARADRSDYVPLFEMVGIDIAVSPREATVNEVLKLTMGKGIEALATIEGEKAEIIEYTASGQSKIVGKPLSKIKFPKGAIVTMVVHDDDVIIPRGEFIIREGDRVIIFALSSAVRSVEKLFK”, the protein production was “failed”.
For “MNKAGARASDQETRRFGFVEWFRPGDYERAEVALPDILESGASYLRTHLSWAEYLAPGGQQWFDWLIPRIGGQIDLLPCIHYTPPSLSRTGRSSGPPVNLKSYADFVDHVLTRYGRYISHIELWNEPNNLLDWDWRHDSDFLLFCEMVGGAAYWAKQRGYKPVLGGPCPFDPYWLNLMGTRGVLGVVDAVGFHGFPGTWDSEEATWGGWDMHLGEMRGIIDRYNADAEIWITETGYSTWRNDEIEQARRFTKALKVPADRMYWYSWRDVPPDVPVQEGLWFDPRHYHLGAVSHDNKPKLLARLLTEGGVKRLEEVAALAAPNITSGAAPIIVTGGSGFVGCNLADRLLSDGEDVIILDNLARSGVDQNLSWLKERHGGRVHPVLADVRDLLGIEAAFRDAKAVFHYAAQTAVTTSLVDPLEDFETNARGTLNVLESIRRAGKRAPIIFASTNKVYGALDDLGMIELDDRYLPEDESIRTLGIGEDRPLDFCTPYGCSKGVADQYILDYAKSYGIPAAVLRMSCIYGPRQFGTEDQGWVAHFLIRALGGEPISIYGDGKQVRDILHVDDAVAAYRVLLSNIGQVSGKAFNLGGGPRNAVSVLAVLREIEELAGRPVETSFGPWRAGDQLYFVADTTRLEQETGWQAGIGWRHGLRHLAEWLIAHRFGGRQIRREKRKASA”, the protein production was “failed”.
For “KISNIFEDVEFCVMSGTDSQPKPDLENRIAEFGGYIVQNPGPDTYCVIAGSENIRVKNIILSNKHDVVKPAWLLECFKTKSFVPWQPRFMIHMCPSTKEHFAREYD”, the protein production was “not failed”.
In the case of “MKNNKKGLWGIIVAVGLFLLSKLKWVFAIFKLAKFSTVFSMFLSLGAYAVLYGWKFGVALIYLLFVHEMGHLWAAKRKGIPTSPAIFIPFMGALIGMKEMPKNAKDEAYIAYMGPLFGLLSFLPAIPLYIMTKEPFWALVILLGSMINFFNLIPVSPLDGGRIISVVSTKIWGAGLILLLGYSIYFKSILGGFIVIIGCMELYRVIKRDEPIKELGHKIYGMKEYVTRLEEELKETGAVHRTIYVMHHEMNALRQREREKELQIGELKKMEVLEYLLPKFEPLDYVPYEDEKDEYTIHIREAFEASERKLNEWKTEKEQQENYYKVDAKTKWTVFACYIGLMVILGYTAYEGYIVLQEHLPTRNV”, the protein production is reported as “failed”.
In the case of “MDKQAILDNIHQTWQEEANAISRLPEVTSEEALVKTVEKIAECTGKIVVAGCGTSGVAAKKLVHSFNCIERPAVFLTPSDAVHGTLGVLQKEDILILISKGGNTGELLNLIPACKTKGSTLIGVTENPDSVIAKEADIFFPVSVSKEPDPFNMLATASTMAVIASFDAVIVCLMTYMNYTKEQFSVIHPGGAVGNKLLNK”, the protein production is reported as “not failed”.
In the case of “MASFSAETNSTDLLSQPWNEPPVILSMVILSLTFLLGLPGNGLVLWVAGLKMQRTVNTIWFLHLTLADLLCCLSLPFSLAHLALQGQWPYGRFLCKLIPSIIVLNMFASVFLLTAISLDRCLVVFKPIWCQNHRNVGMACSICGCIWVVAFVMCIPVFVYREIFTTDNHNRCGYKFGLSSSLDYPDFYGDPLENRSLENIVQPPGEMNDRLDPSSFQTNDHPWTVPTVFQPQTFQRPSADSLPRGSARLTSQNLYSNVFKPADVVSPKIPSGFPIEDHETSPLDNSDAFLSTHLKLFPSASSNSFYESELPQGFQDYYNLGQFTDDDQVPTPLVAITITRLVVGFLLPSVIMIACYSFIVFRMQRGRFAKSQSKTFRVAVVVVAVFLVCWTPYHIFGVLSLLTDPETPLGKTLMSWDHVCIALASANSCFNPFLYALLGKDFRKKARQSIQGILEAAFSEELTRSTHCPSNNVISERNSTTV”, the protein production is reported as “failed”.
In the case of “MKANAIASDIKISKRDLEVAALAVIGTVAYIHYLWSFVLKITSPILIARGIFETTYSVLSIGLAKYVRIYYPLGIASSFTGAALTVIKLHLYESEIFSIINIVFDIFSVPVCAFLFIKNMEVINWH”, the protein production is reported as “failed”.

Reference: a protein production outcome set (Wang et al. 2014)
